T1: human PTH1R overexpressed on CHO cells (human, UniProt Q03431 27-593)
T1 sequence (looked up): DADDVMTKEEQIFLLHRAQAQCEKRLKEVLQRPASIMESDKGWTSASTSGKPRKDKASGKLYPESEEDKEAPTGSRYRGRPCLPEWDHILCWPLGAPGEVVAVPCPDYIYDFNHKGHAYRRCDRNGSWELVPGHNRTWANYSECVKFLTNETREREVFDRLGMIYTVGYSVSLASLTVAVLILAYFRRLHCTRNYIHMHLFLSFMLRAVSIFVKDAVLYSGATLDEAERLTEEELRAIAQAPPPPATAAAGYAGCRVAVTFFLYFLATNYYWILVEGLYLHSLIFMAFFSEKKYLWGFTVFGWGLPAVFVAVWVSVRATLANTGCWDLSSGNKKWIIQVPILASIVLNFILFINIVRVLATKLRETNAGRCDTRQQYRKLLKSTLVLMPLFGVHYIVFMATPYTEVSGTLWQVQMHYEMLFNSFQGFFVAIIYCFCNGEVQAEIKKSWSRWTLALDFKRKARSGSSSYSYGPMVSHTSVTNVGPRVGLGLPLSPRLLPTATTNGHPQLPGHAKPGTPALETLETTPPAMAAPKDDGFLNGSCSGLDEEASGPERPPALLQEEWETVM

T2: mouse PTH1R overexpressed on CHO cells (mouse, UniProt P41593 27-591)
T2 sequence (looked up): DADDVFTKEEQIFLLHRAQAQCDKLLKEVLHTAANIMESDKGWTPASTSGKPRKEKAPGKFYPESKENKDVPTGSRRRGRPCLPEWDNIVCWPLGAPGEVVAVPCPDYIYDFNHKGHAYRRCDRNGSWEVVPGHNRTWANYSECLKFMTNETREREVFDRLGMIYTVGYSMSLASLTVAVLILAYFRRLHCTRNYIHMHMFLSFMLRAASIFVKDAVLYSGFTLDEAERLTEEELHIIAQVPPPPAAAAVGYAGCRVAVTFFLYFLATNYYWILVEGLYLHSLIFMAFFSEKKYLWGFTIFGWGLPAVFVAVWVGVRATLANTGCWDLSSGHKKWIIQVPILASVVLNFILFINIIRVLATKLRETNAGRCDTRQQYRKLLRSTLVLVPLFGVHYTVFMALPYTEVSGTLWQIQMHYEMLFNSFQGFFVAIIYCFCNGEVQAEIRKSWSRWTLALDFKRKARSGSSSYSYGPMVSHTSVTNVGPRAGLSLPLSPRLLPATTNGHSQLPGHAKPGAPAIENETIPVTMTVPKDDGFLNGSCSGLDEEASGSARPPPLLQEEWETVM

T3: rat PTH1R on UMR106 cells (rat, UniProt P25961 27-591)
T3 construct: whole, on cells; also called UMR106 (Endogenous Rat PTH1R); native rat PTH1R
T3 sequence (looked up): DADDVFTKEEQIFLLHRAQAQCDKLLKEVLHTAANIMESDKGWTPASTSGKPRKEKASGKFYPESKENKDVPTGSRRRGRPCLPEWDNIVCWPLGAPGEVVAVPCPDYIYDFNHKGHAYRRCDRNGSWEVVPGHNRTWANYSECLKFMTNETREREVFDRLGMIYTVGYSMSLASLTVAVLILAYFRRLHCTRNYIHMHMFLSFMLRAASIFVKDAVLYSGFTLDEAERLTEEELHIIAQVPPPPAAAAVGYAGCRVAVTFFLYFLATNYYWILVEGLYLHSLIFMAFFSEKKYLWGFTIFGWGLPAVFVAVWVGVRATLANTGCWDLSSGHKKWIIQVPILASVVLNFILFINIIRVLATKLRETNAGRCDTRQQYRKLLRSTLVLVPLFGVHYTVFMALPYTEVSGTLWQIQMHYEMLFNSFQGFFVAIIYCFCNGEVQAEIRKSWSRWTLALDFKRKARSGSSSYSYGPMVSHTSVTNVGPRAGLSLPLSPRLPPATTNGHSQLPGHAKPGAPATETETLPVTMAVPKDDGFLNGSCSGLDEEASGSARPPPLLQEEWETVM

T4: recombinant N-terminal extracellular domain of the human PTH1R receptor (human, UniProt Q03431 27-188, limits assumed)
T4 construct: domain: N-terminal extracellular domain; Bought reagent; also called N-ECD PTH1R; PTH1R N-terminal ECD
T4 sequence (looked up): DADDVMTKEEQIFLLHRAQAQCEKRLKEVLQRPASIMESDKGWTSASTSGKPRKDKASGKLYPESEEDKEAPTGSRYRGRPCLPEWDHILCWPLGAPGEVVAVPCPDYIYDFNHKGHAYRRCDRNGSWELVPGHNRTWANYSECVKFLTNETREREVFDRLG


Legend:
[1] = target: T1, human PTH1R overexpressed on CHO cells; experiment: cell-based or functional assay
[2] = target: T2, mouse PTH1R overexpressed on CHO cells; experiment: cell-based or functional assay
[3] = target: T3, rat PTH1R on UMR106 cells; experiment: flow cytometry, 1 hr at 4 C
[4] = target: T4, recombinant N-terminal extracellular …; experiment: SPR, IgG captured, ECD injected
Description: An anti-human IgG-Fc CMS sensor chip (GE Healthcare) was prepared using standard amine coupling as described by the manufacturer's protocol for the capture Ab on a BIACORE 4000 system (GE Healthcare). Briefly, the chip surface was activated with a 10 minute injection at 10 μL/minute of a freshly mixed 1:1 solution of 0.1 M N-Hydroxysuccinimide (NHS) and 0.4 M 1-Ethyl-3-(3-dimethylaminopropyl) carbodiimide hydrochloride (EDC). Following the activation injection, 15 ug/mL anti-human IgG-Fc antibody in acetate pH 4.5 was injected at 10 μL/minute for 10 minutes to achieve a high density capture surface. 7 minutes of 1M Ethanolamine hydrochloride-NaOH pH 8.5 was injected to block the surface. The NHS, EDC, and Ethanolamine used were from the BIACORE Amine Coupling Kit.
Kinetic Analysis was performed using HBS-EP+(Teknova) with 2.5 mg/mL BSA (Sigma Aldrich, St. Louis Mo.). Antibodies were diluted to 0.5 μg/mL and captured to achieve a surface density of 100 to 200 RU. […] Injections were performed at 30 μL/minute for 240 seconds with a 360 second dissociation time. Regeneration was then performed with one 60 second injection 3M MgCl.
The data were analyzed using BIACORE 4000 Evaluation Software and was double referenced by subtracting both the blank flow cell data and the averaged bracketing blank injections. The data was fit by simultaneously fitting the an off-rate (kd) and on-rate (kₐ), and calculating the KD as KD=kd/kₐ.

Binder | IC50, inhibition of PTH(1-34)-induced cAMP accumulation [1] [nM] | IC50, inhibition of PTHrP(1-34)-induced cAMP accumulation [1] [nM] | IC50, inhibition of PTHrP(1-34)-induced cAMP accumulation [2] [nM] | binding result [3] | Kd [4] [nM] | koff [4] [s⁻¹] | kon [4] [M⁻¹ s⁻¹] | IC50, inhibition of PTH(1-34)-induced cAMP accumulation (curve does not reach a plateau) [1] [nM]
XPA.85.344 (antibody, V domains shown, Light-chain-shuffled variant of XPA.85.012) VH: QMQLVQSGAEVKKPGSSVKVSCKASGGTFSSYAISWVRQAPGQGLEWMGGIIPIFGTANYAQKFQGRVTITADESTSTAYMELSSLRSEDTAVYYCARGYVVARLWGQGTLVTVSS VL: DVVMTQTPLSLSVTPGQPASFSCKSTQSLLWRDGNTYLYWYLQKPGQSPQLLIYEVSGRFSGVPERFSGSGSGTDFTLEISRVEAEDVGVYYCMQSIHFPLTFGGGTKLEIK | 15.5 | 15.3 | 3.89 | binds | 0.18 | 0.00023 | 1.3e+06 | 
XPA.85.343 (antibody, V domains shown, Light-chain-shuffled variant of XPA.85.012) VH: QMQLVQSGAEVKKPGSSVKVSCKASGGTFSSYAISWVRQAPGQGLEWMGGIIPIFGTANYAQKFQGRVTITADESTSTAYMELSSLRSEDTAVYYCARGYVVARLWGQGTLVTVSS VL: DVVMTQTPLSLSVTPGQPASISCKSSQSLLHIDGRTYLYWYLQKAGQPPQLLIYEVSNRFSGVPDRFSGSGSGTDFTLKISRVEAEDVGVYYCMQSIHFPLTFGGGTKLEIK | 14.4 | 17.8 | 3.87 | binds | 0.42 | 0.00045 | 1.1e+06 | 
XPA.85.334 (antibody, V domains shown, Light-chain-shuffled variant of XPA.85.012) VH: QMQLVQSGAEVKKPGSSVKVSCKASGGTFSSYAISWVRQAPGQGLEWMGGIIPIFGTANYAQKFQGRVTITADESTSTAYMELSSLRSEDTAVYYCARGYVVARLWGQGTLVTVSS VL: DIVMTQTPLSLSVTPGQPASITCKSSQSLLHIDGKTYLYWFLQKPGQPPQLLIYEVSNRFSGVPDRFSGTGSGTDFTLKISRVEAEDVGVYYCMQSLHFPITFGPGTRLEIK |  | 12.4 | 3.32 | binds | 0.25 | 0.00021 | 860000 | 51.2

Reference: patent US20200317817A1 (XOMA US, published 2020)
